In assay [1] the target is RPABC5, subunit of human RNA polymerase III (human, UniProt P62875 1-67). The assay can be described thus: cryo-EM structure.
The target in assay [2] is T1, RPC2, subunit of human RNA polymerase III (human, UniProt Q9NW08 1-1133).
T1 sequence: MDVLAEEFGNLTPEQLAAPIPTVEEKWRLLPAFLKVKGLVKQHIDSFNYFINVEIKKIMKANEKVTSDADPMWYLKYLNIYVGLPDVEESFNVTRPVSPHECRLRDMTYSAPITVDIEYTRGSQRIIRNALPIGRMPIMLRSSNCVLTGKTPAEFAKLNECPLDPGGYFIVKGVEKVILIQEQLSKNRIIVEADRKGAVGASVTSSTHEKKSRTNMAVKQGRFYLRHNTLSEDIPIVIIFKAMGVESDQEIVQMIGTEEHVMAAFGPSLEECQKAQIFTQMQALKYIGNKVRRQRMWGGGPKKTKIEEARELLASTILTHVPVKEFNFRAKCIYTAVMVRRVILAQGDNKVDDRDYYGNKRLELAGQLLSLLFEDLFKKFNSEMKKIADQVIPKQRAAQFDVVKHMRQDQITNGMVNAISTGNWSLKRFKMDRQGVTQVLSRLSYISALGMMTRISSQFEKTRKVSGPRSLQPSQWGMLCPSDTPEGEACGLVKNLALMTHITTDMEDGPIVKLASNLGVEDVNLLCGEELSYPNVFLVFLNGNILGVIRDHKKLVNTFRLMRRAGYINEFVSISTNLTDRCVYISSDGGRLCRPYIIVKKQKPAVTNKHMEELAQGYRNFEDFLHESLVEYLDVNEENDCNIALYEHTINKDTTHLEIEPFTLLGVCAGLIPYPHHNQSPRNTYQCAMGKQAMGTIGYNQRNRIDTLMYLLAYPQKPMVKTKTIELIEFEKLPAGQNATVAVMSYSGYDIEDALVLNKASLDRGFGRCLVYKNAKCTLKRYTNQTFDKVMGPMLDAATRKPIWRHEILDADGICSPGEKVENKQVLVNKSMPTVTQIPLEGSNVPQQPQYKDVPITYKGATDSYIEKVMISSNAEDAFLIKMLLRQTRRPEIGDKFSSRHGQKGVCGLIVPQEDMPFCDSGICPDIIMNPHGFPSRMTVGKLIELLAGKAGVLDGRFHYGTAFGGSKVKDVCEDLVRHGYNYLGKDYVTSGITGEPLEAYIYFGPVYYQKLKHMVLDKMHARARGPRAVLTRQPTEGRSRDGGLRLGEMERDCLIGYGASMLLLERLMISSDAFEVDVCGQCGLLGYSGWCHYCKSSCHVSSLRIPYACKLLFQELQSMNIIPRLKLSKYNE
As to the kind of experiment: cryo-EM structure.

The values that follow come from publication PMC7610652 (Nature structural & molecular biology, 2021).

B1: RPC5, subunit of the human RNA polymerase III heterodimer (natural protein)
chain: MANEEDDPVVQEIDVYLAKSLAEKLYLFQYPVRPASMTYDDIPHLSAKIKPKQQKVELEMAIDTLNPNYCRSKGEQIALNVDGACADETSTYSSKLMDKQTFCSSQTTSNTSRYAAALYRQGELHLTPLHGILQLRPSFSYLDKADAKHREREAANEAGDSSQDEAEDDVKQITVRFSRPESEQARQRRVQSYEFLQKKHAEEPWVHLHYYGLRDSRSEHERQYLLCPGSSGVENTELVKSPSEYLMMLMPPSQEEEKDKPVAPSNVLSMAQLRTLPLADQIKILMKNVKVMPFANLMSLLGPSIDSVAVLRGIQKVAMLVQGNWVVKSDILYPKDSSSPHSGVPAEVLCRGRDFVMWKFTQSRWVVRKEVATVTKLCAEDVKDFLEHMAVVRINKGWEFILPYDGEFIKKHPDVVQRQHMLWTGIQAKLEKVYNLVKETMPKKPDAQSGPAGLVCGDQRIQVAKTKAQQNHALLERELQRRKEQLRVPAVPPGVRIKEEPVSEEGEEDEEQEAEEEPMDTSPSGLHSKLANGLPLGRAAGTDSFNGHPPQGCASTPVARELKAFVEATFQRQFVLTLSELKRLFNLHLASLPPGHTLFSGISDRMLQDTVLAAGCKQILVPFPPQTAASPDEQKVFALWESGDMSDQHRQVLLEIFSKNYRVRRNMIQSRLTQECGEDLSKQEVDKVLKDCCVSYGGMWYLKGTVQS
For B1, the binding result in assay [1] and in assay [2] was “binds” in each case.
